Experimental data taken from paper PMC7280309 (Nature Communications, 2020).

B1: DotY (natural protein)
chain: MPKYTLPTRDALLKAMQVGETSIEAAEYMATRFEQILTKAKLLPECNDMLEKIKEYAQFVKFKLLSSAQVWSGQERPTSDYQNTQENKAEFLASHLEGLPSGLKLEVAIGDDAKILRGFSSNGKMVEGDQLKTMDGLLEGWLAKNSLAISGGAVVKIDNTGNQTKVDPQEIRQLINDSEKGVAKYFADKGVGMEVAQRTYQEPKALETKREEIRQEIESGAEAPTTQSIR
B2: DotZ (natural protein)
chain: MDEIKKDDELSQWLSTYGTITAERILGRYNISLPQDEILEAINIPSSFYRHLLQIPLKNVLNGIVIQQASDYHVYAQKLLIDYLLSGESSKEPDSQGAGTRESLEDERQRLVQLGDEFHKLELEQDNLIASSQASLMKISIDWNTKLETTLSKLNSLYKNTNSKIKKNAIRKALIKAFIHCDLVKDQSQKNKYQLIDKLNQTLAVSVGAELKESILTNLSELFQILEALNTKLDEFTDRTNHLSQQAKSFRTQFYEVILRIIELIKLLPEYKIDPAQDAINREPLYFDRTIGER
B3: DotN (natural protein)
chain: MNVNQTMADNQQRCELKLIASPGSWRLYSARKIDERFKSYEQKIFQRDRYTCQFCGFQARLYQDIVNLDGDYTNNRLSNLVTACCFCAQCFFVESVGVGGYGGGTLIYLPELTQAELNSLCHVLFCAITNDTGYKSSAQNIYRSFKFRSQIVEEKFGEGTSDPAIFGQLMIDSGVNSEEIREKLFKNIRLLPSRAKFRKQIEKWAASALEEIAD

How the values were obtained:
DotZ = target: B2; test: cryo-EM structure; conditions: both partners purified
[1] = target: T1, DotL with a C-terminal Strep-tag (Legionella pneumophila, UniProt Q5ZYC6 1-783); test: affinity purification with mass spectrometry; conditions: partners not purified
T1 sequence: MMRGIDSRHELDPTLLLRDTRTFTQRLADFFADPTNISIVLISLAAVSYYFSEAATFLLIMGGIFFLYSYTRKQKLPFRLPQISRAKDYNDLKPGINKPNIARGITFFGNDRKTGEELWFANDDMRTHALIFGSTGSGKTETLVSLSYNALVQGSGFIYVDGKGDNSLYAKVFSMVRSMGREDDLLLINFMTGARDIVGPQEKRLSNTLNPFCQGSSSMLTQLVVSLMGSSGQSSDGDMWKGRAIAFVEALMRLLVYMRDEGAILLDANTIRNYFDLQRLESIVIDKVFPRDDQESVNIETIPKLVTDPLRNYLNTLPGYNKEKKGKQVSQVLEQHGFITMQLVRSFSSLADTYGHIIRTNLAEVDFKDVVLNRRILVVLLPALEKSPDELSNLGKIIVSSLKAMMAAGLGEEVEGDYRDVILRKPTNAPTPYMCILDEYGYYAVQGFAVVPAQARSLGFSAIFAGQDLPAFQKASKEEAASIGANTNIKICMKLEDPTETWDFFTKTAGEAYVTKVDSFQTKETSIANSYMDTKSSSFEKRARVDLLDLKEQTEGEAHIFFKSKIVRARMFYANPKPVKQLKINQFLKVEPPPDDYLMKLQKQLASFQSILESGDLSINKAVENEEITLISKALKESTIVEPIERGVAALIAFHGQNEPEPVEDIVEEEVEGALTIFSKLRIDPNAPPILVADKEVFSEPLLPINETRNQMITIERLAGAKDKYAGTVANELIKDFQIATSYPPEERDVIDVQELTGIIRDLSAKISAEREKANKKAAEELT

DotY = target: B1; test: cryo-EM structure; conditions: both partners purified

| Binder | binding result (DotZ) | binding result [1] | binding result (DotY) |
| --- | --- | --- | --- |
| B1 | binds |  |  |
| B2 |  | binds |  |
| B3 | binds | binds | binds |
